Laboratory results taken from patent US20150344570A1 (published 2015).

Molecular target: T1, FcγRIa (human, UniProt P12314 16-292)
T1 construct: extracellular domain; Soluble extracellular domain expressed in FreeStyle293 cells, used as analyte in Biacore; also called FcgRI; 1a; not shown: His tag attached to the C terminus
Assay: SPR (Biacore); He Ab vs HeCon Ab GpH7-A5/GpH7-B3/GpL16-k0
Method: Analysis of interaction between objective antibody and the FcγR was carried out using Biacore T100 (GE Healthcare). HBS-EP+ (GE Healthcare) was used as the running buffer, and the measurement temperature was set to 25° C. Chips produced by immobilizing the antigen peptide by the amine coupling method to a Series S Sencor Chip CM5 (GE Healthcare), or alternatively, chips produced by allowing preliminarily biotinylated antigen peptides to interact with and immobilize onto a Series S Sensor Chip SA (certified) (GE Healthcare) were used. Antibodies of interest were captured onto an antigen peptide-immobilized chip, and allowed to interact to each FcγR diluted with running buffer. To regenerate and repeatedly use the chip, the antibodies captured on the chip were washed off by reacting 10 mM glycine-HCl, pH 1.5.

T1 sequence (P12314 16-292): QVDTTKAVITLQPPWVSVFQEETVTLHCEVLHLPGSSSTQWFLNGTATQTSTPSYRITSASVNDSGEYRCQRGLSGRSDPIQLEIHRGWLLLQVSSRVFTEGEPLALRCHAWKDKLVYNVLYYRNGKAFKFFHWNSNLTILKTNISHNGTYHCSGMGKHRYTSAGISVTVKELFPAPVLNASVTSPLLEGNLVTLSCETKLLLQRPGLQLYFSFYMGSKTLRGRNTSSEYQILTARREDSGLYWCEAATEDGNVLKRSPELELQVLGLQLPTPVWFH

Binder | He/Con_1a
GpH7-A5/GpH7-B3 variant S298_08L/GpL16-k0 (antibody, human IgG1, kappa, also called He Ab S298_08L) heavy 1: not shown heavy 2: not shown light: DIVMTQSPLSLPVTPGEPASISCQASESLVHSNRNTYLHWYLQKPGQSPQLLIYKVSNRFSGVPDRFSGSGSGTDFTLKISRVEAEDVGVYYCSQNTHVPPTFGQGTKVEIERTVAAPSVFIFPPSDEQLKSGTASVVCLLNNFYPREAKVQWKVDNALQSGNSQESVTEQDSKDSTYSLSSTLTLSKADYEKHKVYACEVTHQGLSSPVTKSFNRGEC | 107 relative binding, control = 100
GpH7-A5/GpH7-B3 variant S324_19Q/GpL16-k0 (antibody, human IgG1, kappa, also called He Ab S324_19Q) heavy 1: not shown heavy 2: not shown light: DIVMTQSPLSLPVTPGEPASISCQASESLVHSNRNTYLHWYLQKPGQSPQLLIYKVSNRFSGVPDRFSGSGSGTDFTLKISRVEAEDVGVYYCSQNTHVPPTFGQGTKVEIERTVAAPSVFIFPPSDEQLKSGTASVVCLLNNFYPREAKVQWKVDNALQSGNSQESVTEQDSKDSTYSLSSTLTLSKADYEKHKVYACEVTHQGLSSPVTKSFNRGEC | 112 relative binding, control = 100
GpH7-A5/GpH7-B3 variant S324_18N/GpL16-k0 (antibody, human IgG1, kappa, also called He Ab S324_18N) heavy 1: not shown heavy 2: not shown light: DIVMTQSPLSLPVTPGEPASISCQASESLVHSNRNTYLHWYLQKPGQSPQLLIYKVSNRFSGVPDRFSGSGSGTDFTLKISRVEAEDVGVYYCSQNTHVPPTFGQGTKVEIERTVAAPSVFIFPPSDEQLKSGTASVVCLLNNFYPREAKVQWKVDNALQSGNSQESVTEQDSKDSTYSLSSTLTLSKADYEKHKVYACEVTHQGLSSPVTKSFNRGEC | 116 relative binding, control = 100
GpH7-A5/GpH7-B3 variant S298_16H/GpL16-k0 (antibody, human IgG1, kappa, also called He Ab S298_16H) heavy 1: not shown heavy 2: not shown light: DIVMTQSPLSLPVTPGEPASISCQASESLVHSNRNTYLHWYLQKPGQSPQLLIYKVSNRFSGVPDRFSGSGSGTDFTLKISRVEAEDVGVYYCSQNTHVPPTFGQGTKVEIERTVAAPSVFIFPPSDEQLKSGTASVVCLLNNFYPREAKVQWKVDNALQSGNSQESVTEQDSKDSTYSLSSTLTLSKADYEKHKVYACEVTHQGLSSPVTKSFNRGEC | 109 relative binding, control = 100
GpH7-A5/GpH7-B3 variant S337_01G/GpL16-k0 (antibody, human IgG1, kappa, also called He Ab S337_01G) heavy 1: not shown heavy 2: not shown light: DIVMTQSPLSLPVTPGEPASISCQASESLVHSNRNTYLHWYLQKPGQSPQLLIYKVSNRFSGVPDRFSGSGSGTDFTLKISRVEAEDVGVYYCSQNTHVPPTFGQGTKVEIERTVAAPSVFIFPPSDEQLKSGTASVVCLLNNFYPREAKVQWKVDNALQSGNSQESVTEQDSKDSTYSLSSTLTLSKADYEKHKVYACEVTHQGLSSPVTKSFNRGEC | 107 relative binding, control = 100
GpH7-A5/GpH7-B3 variant S298_15Y/GpL16-k0 (antibody, human IgG1, kappa, also called He Ab S298_15Y) heavy 1: not shown heavy 2: not shown light: DIVMTQSPLSLPVTPGEPASISCQASESLVHSNRNTYLHWYLQKPGQSPQLLIYKVSNRFSGVPDRFSGSGSGTDFTLKISRVEAEDVGVYYCSQNTHVPPTFGQGTKVEIERTVAAPSVFIFPPSDEQLKSGTASVVCLLNNFYPREAKVQWKVDNALQSGNSQESVTEQDSKDSTYSLSSTLTLSKADYEKHKVYACEVTHQGLSSPVTKSFNRGEC | 107 relative binding, control = 100
GpH7-A5/GpH7-B3 variant S298_20W/GpL16-k0 (antibody, human IgG1, kappa, also called He Ab S298_20W) heavy 1: not shown heavy 2: not shown light: DIVMTQSPLSLPVTPGEPASISCQASESLVHSNRNTYLHWYLQKPGQSPQLLIYKVSNRFSGVPDRFSGSGSGTDFTLKISRVEAEDVGVYYCSQNTHVPPTFGQGTKVEIERTVAAPSVFIFPPSDEQLKSGTASVVCLLNNFYPREAKVQWKVDNALQSGNSQESVTEQDSKDSTYSLSSTLTLSKADYEKHKVYACEVTHQGLSSPVTKSFNRGEC | 104 relative binding, control = 100
GpH7-A5/GpH7-B3 variant S324_14T/GpL16-k0 (antibody, human IgG1, kappa, also called He Ab S324_14T) heavy 1: not shown heavy 2: not shown light: DIVMTQSPLSLPVTPGEPASISCQASESLVHSNRNTYLHWYLQKPGQSPQLLIYKVSNRFSGVPDRFSGSGSGTDFTLKISRVEAEDVGVYYCSQNTHVPPTFGQGTKVEIERTVAAPSVFIFPPSDEQLKSGTASVVCLLNNFYPREAKVQWKVDNALQSGNSQESVTEQDSKDSTYSLSSTLTLSKADYEKHKVYACEVTHQGLSSPVTKSFNRGEC | 121 relative binding, control = 100
GpH7-A5/GpH7-B3 variant S324_03V/GpL16-k0 (antibody, human IgG1, kappa, also called He Ab S324_03V) heavy 1: not shown heavy 2: not shown light: DIVMTQSPLSLPVTPGEPASISCQASESLVHSNRNTYLHWYLQKPGQSPQLLIYKVSNRFSGVPDRFSGSGSGTDFTLKISRVEAEDVGVYYCSQNTHVPPTFGQGTKVEIERTVAAPSVFIFPPSDEQLKSGTASVVCLLNNFYPREAKVQWKVDNALQSGNSQESVTEQDSKDSTYSLSSTLTLSKADYEKHKVYACEVTHQGLSSPVTKSFNRGEC | 104 relative binding, control = 100
GpH7-A5/GpH7-B3 variant S298_19Q/GpL16-k0 (antibody, human IgG1, kappa, also called He Ab S298_19Q) heavy 1: not shown heavy 2: not shown light: DIVMTQSPLSLPVTPGEPASISCQASESLVHSNRNTYLHWYLQKPGQSPQLLIYKVSNRFSGVPDRFSGSGSGTDFTLKISRVEAEDVGVYYCSQNTHVPPTFGQGTKVEIERTVAAPSVFIFPPSDEQLKSGTASVVCLLNNFYPREAKVQWKVDNALQSGNSQESVTEQDSKDSTYSLSSTLTLSKADYEKHKVYACEVTHQGLSSPVTKSFNRGEC | 109 relative binding, control = 100
